The target of this experiment is T1, AlexaFluor488-labeled human PLCβ3-Δ892 R872A L876A L879A triple mutant (human, UniProt Q01970 10-891, R872A | L876A | L879A).
T1 sequence: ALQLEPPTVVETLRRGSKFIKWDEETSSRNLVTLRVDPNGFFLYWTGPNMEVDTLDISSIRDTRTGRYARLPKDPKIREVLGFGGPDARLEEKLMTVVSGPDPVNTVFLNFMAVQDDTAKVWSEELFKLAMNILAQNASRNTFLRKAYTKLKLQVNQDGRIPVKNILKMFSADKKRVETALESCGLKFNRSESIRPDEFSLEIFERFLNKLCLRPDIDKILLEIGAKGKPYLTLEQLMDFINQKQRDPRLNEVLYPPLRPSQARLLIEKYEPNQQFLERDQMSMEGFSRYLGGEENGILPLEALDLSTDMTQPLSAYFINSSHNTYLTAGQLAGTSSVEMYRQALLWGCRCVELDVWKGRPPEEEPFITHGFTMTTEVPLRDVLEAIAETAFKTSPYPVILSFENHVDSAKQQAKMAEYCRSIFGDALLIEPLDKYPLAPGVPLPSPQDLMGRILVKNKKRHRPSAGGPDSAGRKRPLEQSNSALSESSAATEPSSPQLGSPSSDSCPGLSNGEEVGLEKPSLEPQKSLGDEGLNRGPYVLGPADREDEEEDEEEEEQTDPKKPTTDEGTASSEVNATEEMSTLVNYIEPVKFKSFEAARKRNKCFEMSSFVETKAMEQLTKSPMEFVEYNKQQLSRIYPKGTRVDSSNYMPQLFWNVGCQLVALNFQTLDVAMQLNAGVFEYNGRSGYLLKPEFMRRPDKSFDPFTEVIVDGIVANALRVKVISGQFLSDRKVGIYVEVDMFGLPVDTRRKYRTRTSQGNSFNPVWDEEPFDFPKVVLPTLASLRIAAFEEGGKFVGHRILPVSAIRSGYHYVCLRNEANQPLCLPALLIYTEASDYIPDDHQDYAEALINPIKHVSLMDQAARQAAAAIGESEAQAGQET
The experiment can be described thus: flow cytometry protein interaction assay.

B1: Gαi/q chimera (murine Gαq with its N-terminal helix replaced with that of Gαi), biotinylated, AlF4-activated (other)
chain: MGCTLSAEDKAAVERSKMIDRNLREDGEKARRELKLLLLGTGESGKSTFIKQMRIIHGSGYSDEDKRGFTKLVYQNIFTAMQAMIRAMDTLKIPYKYEHNKAHAQLVREVDVEKVSAFENPYVDAIKSLWNDPGIQECYDRRREYQLSDSTKYYLNDLDRVADPSYLPTQQDVLRVRVPTTGIIEYPFDLQSVIFRMVDVGGQRSERRKWIHCFENVTSIMFLVALSEYDQVLVESDNENRMEESKALFRTIITYPWFQNSSVILFLNKKDLLEEKIMYSHLVDYFPEYDGPQRDAQAAREFILKMFVDLNPDSDKIIYSHFTCATDTENIRFVFAAVKDTILQLNLKEYNLV
modifications: biotinylated (sites not given)
B1 showed a Kd of 20.5 nM.

Values taken from publication PMC3168981 (Nature structural & molecular biology, 2011).
